The values below are quoted from earlier work in paper PMC10935721.

The series deals with Tyr32. The note with it: reduced (non-radical) X32.

Turning to “α3Y (de novo three-helix bundle with Tyr32) (synthetic construct (de novo designed))”, the pKa is given as 11.3 (±0.1).

Usually pKa stands for the negative logarithm of the acid dissociation constant.
